Substitutions are numbered along the chain they refer to. In names and notes the source's numbering stands.
B1: MTSP-1 protease domain Q38H/I41A/D60bV/F60eR/Y60gW/D96F/F97D/ins97aE/T98G/F99M/C122S/G151N/Q175L/Q192R (enzyme)
chain: VVGGTDADEGEWPWQVSLHALGHGHACGASLISPNWLVSAAHCYIDVRGRRWSDPTQWTAFLGLHDQSQRSAPGVQERRLKRIISHPFFNFDEGMDYDIALLELEKPAEYSSMVRPISLPDASHVFPAGKAIWVTGWGHTQYGGTNALILQKGEIRVINQTTCENLLPQLITPRMMCVGFLSGGVDSCRGDSGGPLSSVEADGRIFQAGVVSWGDGCAQRNKPGVYTRLPLFRDWIKENTGV
B2: MTSP-1 protease domain Q38H/I41A/D60bV/F60eR/Y60gW/D96F/F97S/ins97aH/T98G/F99L/C122S/G151N/Q175L/Q192G (enzyme)
chain: B1 chain with D92S, E93H, M95L, R189G
B3: MTSP-1 protease domain Q38H/I41S/D60bT/F60eS/Y60gW/D96Y/F97N/ins97aE/T98S/F99L/C122S/G151H/Q175L/Q192D (enzyme)
chain: B1 chain with A26S, V47T, R50S, F91Y, D92N, G94S, M95L, N146H, R189D
B4: MTSP-1 protease domain Q38H/I41A/D60bV/F60eR/Y60gW/D96W/F97D/ins97aT/T98G/F99L/C122S/G151N/Q175L/Q192G (enzyme)
chain: B1 chain with F91W, E93T, M95L, R189G
B5: MTSP-1 protease domain Q38H/I41A/D60bV/F60eR/Y60gW/D96F/F97E/ins97aT/T98G/F99M/C122S/G151N/Q175L/Q192G (enzyme)
chain: B1 chain with D92E, E93T, R189G
B6: MTSP-1 protease domain Q38H/I41A/D60bV/F60eR/Y60gW/D96F/F97E/ins97aS/T98G/F99M/C122S/G151N/Q175L/Q192G (enzyme)
chain: B1 chain with D92E, E93S, R189G
B7: MTSP-1 protease domain Q38H/I41A/D60bV/F60eR/Y60gW/D96F/F97Y/ins97aE/T98G/F99M/C122S/G151N/Q175L/Q192R (enzyme)
chain: B1 chain with D92Y
B8: MTSP-1 Q38H/I41S/D60bT/F60eS/Y60gW/F97D/ins97aV/T98P/F99L/C122S/G151H/Q175L/Q192E (enzyme)
chain: B1 chain with A26S, V47T, R50S, F91D, E93V, G94P, M95L, N146H, R189E
B9: MTSP-1 protease domain Q38H/I41A/D60bV/F60eR/Y60gW/D96F/F97Y/ins97aN/T98G/F99M/C122S/G151N/Q175L/Q192G (enzyme)
chain: B1 chain with D92Y, E93N, R189G
B10: MTSP-1 protease domain Q38H/I41S/D60bT/F60eS/Y60gW/D96F/F97Y/ins97aD/T98G/F99L/C122S/G151H/Q175L/Q192D (enzyme)
chain: B1 chain with A26S, V47T, R50S, D92Y, E93D, M95L, N146H, R189D
B11: MTSP-1 protease domain Q38H/I41A/D60bV/F60eR/Y60gW/D96W/F97D/ins97aD/T98G/F99L/C122S/G151N/Q175L/Q192G (enzyme)
chain: B1 chain with F91W, E93D, M95L, R189G
B12: MTSP-1 protease domain Q38H/I41S/D60bT/F60eS/Y60gW/D96Y/F97R/ins97aD/T98G/F99L/C122S/G151H/Q175L/Q192D (enzyme)
chain: B1 chain with A26S, V47T, R50S, F91Y, D92R, E93D, M95L, N146H, R189D
B13: MTSP-1 protease domain Q38H/I41S/D60bT/F60eS/Y60gW/D96F/F97S/ins97aD/T98G/F99L/C122S/G151H/Q175L/Q192D (enzyme)
chain: B1 chain with A26S, V47T, R50S, D92S, E93D, M95L, N146H, R189D
B14: MTSP-1 protease domain Q38M/I41S/F60eH/Y60gW/D96Y/F97N/T98G/F99L/C122S/G151N/Q175L/Q192D (enzyme)
chain: VVGGTDADEGEWPWQVSLHALGMGHSCGASLISPNWLVSAAHCYIDDRGHRWSDPTQWTAFLGLHDQSQRSAPGVQERRLKRIISHPFFNYNGLDYDIALLELEKPAEYSSMVRPISLPDASHVFPAGKAIWVTGWGHTQYGGTNALILQKGEIRVINQTTCENLLPQLITPRMMCVGFLSGGVDSCDGDSGGPLSSVEADGRIFQAGVVSWGDGCAQRNKPGVYTRLPLFRDWIKENTGV
B15: MTSP-1 protease domain Q38H/I41S/D60bT/F60eK/Y60gF/D96M/F97N/T98G/F99L/C122S/G151N/Q175L/Q192D (enzyme)
chain: B14 chain with M23H, D47T, H50K, W52F, Y91M

molecular target: plasma purified human complement protein C3 (human) (UniProt P01024); experiment: cell-based or functional assay
Sequence (P01024 23-667, chain 1 of 2): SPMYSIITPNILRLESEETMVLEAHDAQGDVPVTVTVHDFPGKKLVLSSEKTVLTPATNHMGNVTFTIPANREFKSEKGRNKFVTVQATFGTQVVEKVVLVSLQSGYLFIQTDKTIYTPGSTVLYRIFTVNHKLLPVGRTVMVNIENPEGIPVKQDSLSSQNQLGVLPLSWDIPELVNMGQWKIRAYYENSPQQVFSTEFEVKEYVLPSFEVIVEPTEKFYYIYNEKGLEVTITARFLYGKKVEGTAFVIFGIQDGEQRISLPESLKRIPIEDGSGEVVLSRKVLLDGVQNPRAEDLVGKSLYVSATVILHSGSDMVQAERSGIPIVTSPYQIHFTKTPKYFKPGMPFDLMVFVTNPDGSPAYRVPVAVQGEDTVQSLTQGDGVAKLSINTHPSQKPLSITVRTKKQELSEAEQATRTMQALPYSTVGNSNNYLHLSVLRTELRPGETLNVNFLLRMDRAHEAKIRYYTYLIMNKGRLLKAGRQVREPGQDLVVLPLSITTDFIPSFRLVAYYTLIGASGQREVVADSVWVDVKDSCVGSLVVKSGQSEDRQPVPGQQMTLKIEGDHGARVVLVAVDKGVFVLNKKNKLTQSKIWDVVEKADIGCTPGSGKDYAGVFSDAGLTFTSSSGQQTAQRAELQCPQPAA
Sequence (P01024 672-1663, chain 2 of 2): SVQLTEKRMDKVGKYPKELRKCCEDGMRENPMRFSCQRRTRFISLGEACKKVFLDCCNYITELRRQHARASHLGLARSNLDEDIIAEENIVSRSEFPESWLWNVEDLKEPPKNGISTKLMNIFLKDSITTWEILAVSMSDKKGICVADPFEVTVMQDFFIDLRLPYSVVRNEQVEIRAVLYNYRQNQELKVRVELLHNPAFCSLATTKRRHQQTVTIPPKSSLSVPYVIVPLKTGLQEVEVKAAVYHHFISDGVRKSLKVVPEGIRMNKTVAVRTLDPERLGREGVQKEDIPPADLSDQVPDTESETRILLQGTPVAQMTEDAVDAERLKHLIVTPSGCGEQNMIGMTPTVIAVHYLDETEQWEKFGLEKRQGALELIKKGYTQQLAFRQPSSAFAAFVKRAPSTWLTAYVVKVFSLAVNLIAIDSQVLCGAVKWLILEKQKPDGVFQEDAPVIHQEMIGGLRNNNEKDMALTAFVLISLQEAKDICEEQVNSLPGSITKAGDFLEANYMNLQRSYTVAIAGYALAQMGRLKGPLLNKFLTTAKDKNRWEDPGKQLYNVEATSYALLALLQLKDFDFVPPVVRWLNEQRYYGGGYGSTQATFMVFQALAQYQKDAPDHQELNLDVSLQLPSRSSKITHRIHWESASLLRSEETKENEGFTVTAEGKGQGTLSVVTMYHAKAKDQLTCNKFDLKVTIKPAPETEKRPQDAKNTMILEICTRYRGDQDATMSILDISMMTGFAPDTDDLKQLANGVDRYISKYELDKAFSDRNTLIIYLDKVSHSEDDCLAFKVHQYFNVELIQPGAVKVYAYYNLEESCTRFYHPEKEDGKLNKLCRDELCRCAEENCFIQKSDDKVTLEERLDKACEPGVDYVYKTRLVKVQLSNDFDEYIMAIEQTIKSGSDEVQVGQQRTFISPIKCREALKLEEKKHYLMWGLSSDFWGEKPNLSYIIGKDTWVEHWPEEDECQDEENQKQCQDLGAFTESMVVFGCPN

EC50 hC3 cleavage [nM]	EC50 of hC3 cleavage [nM]	Binder
13.1		B1
3.14		B2
4.53		B3
4.9		B4
16.9		B5
21.3		B6
7.16		B7
	6.68	B8
3.76		B9
3.13		B10
5.28		B11
5.71		B12
5.17		B13
21.6		B14
20.6		B15

From patent US20240018502A1
